# T1: Aryl Alcohol Oxidase (AAOx) (Pleurotus eryngii, UniProt O94219)
# T1 construct: gene aao; N-terminal His-tag, pET-15b, E. coli BL21-GOLD; FAD added during purification; IMAC and SEC
# T1 sequence (O94219 22-593): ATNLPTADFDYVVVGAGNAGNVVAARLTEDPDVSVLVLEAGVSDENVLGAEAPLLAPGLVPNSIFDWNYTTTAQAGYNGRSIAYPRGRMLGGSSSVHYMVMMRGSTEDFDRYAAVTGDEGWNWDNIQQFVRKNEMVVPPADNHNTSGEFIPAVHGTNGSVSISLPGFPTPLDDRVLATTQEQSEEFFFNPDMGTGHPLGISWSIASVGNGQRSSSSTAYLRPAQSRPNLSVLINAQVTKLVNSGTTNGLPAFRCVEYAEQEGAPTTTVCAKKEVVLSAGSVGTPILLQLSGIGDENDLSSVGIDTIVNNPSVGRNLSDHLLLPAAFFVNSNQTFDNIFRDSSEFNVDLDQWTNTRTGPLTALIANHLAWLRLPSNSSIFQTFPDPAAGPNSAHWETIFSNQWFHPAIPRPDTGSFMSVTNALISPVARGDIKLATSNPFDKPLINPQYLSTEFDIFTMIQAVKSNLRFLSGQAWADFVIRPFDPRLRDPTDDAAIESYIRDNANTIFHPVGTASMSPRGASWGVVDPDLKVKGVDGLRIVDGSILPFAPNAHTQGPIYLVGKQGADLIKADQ
# B1: BTL2 (Bacillus thermocatenulatus Lipase 2) (Geobacillus thermocatenulatus) (protein)
# chain: ASPRANDAPIVLLHGFTGWGREEMLGFKYWGGVRGDIEQWLNDNGYRTYTLAVGPLSSNWDRACEAYAQLVGGTVDYGAAHAAKHGHARFGRTYPGLLPELKRGGRVHIIAHSQGGQTARMLVSLLENGSQEEREYAKAHNVSLSPLFEGGHHFVLSVTTIATPHDGTTLVNMVDFTDRFFDLQKAVLKAAAVASNVPYTSQVYDFKLDQWGLRRQPGESFDHYFERLKRSPVWTSTDTARYDLSIPGAEKLNQWVQASPNTYYLSFSTERTHRGALTGNYYPELGMNAFSAVVCAPFLGSYRNEALGIDDRWLENDGIVNTVSMNGPKRGSSDRIVPYDGTLKKGVWNDMGTCNVDHLEVIGVDPNPSFDIRAFYLRLAEQLASLRP
# notes: N-terminal His-tag, pET-15b, E. coli BL21-GOLD; IMAC and SEC
# Key:
# [1] = molecular target: T1, Aryl Alcohol Oxidase (AAOx); test: absorbance of cinnamyl aldehyde at […] nm; assay type: biochemical; settings: 5 nM enzyme, 250 µM substrate, pH 5.5-7.5, 10 mM ionic strength Tris/Bis-Tris, 30 mM NaCl
# [2] = substrate: CCCC(=O)Oc1ccc2c(C)cc(=O)oc2c1; test: fluorescence of released 4-methylumbelliferone, initial rates, Michaelis-Menten fit; assay type: biochemical, Geobacillus thermocatenulatus; settings: homogeneous enzyme, 0.5 µM, 24 mM Tris, 10 mM NaCl, pH 7.5, substrate solubility kept concentrations below the KM
# Excerpt: fluorescence of released 4-methylumbelliferone, initial rates, Michaelis-Menten fit on BTL2 (Bacillus thermocatenulatus Lipase 2)
molecule,measurement,setting,value
"OC/C=C/c1ccccc1 [CAlc, Cinnamyl Alcohol]",absorbance of cinnamyl aldehyde at 310 nm,[1],measuring the rate of the oxidation reaction of CAlc to CAld catalyzed by AAOx
B1,Km,[2],713 ± 281 µM
same,Vmax,[2],126 µM/min
same,kcat,[2],4.3 ± 1.2 s⁻¹

# Reference: PMC12246476, “Enhancement of enzymatic activity by biomolecular condensates through pH buffering” (Nature Communications, 2025)
